Patent US20230174598A1 (UNIVERSITY OF FLORIDA RESEARCH FOUNDATION, published 2023)
Positions count from the first letter of the chain named. Names may count otherwise.

B1: H10C arrestin-1 (bovine, His(6), C63A/C143A) labeled with monobromobimane (other)
chain: MHHHHHHKANKPAPNCVIFKKISRDKSVTIYLGKRDYIDHVERVEPVDGVVLVDPELVKGKRVYVSLTAAFRYGQEDIDVMGLSFRRDLYFSQVQVFPPVGASGATTRLQESLIKKLGANTYPFLLTFPDYLPCSVMLQPAPQDVGKSAGVDFEIKAFATHSTDVEEDKIPKKSSVRLLIRKVQHAPRDMGPQPRAEASWQFFMSDKPLRLAVSLSKEIYYHGEPIPVTVAVTNSTEKTVKKIKVLVEQVTNVVLYSSDYYIKTVAAEEAQEKVPPNSSLTKTLTLVPLLANNRERRGIALDGKIKHEDTNLASSTIIKEGIDKTVMGILVSYQIKVKLTVSGLLGELTSSEVATEVPFRLMHPQPEDPDTAKESFQDENFVFEEFARQNLKDAGEYKEEKTDQEAAMDE
modifications: monobromobimane (mBBr) on Cys 10
notes: Cysteine-substitution mutant, made in Pichia pastoris; also called H10C-mBBr
B2: E361G arrestin-1 variant (bovine) (other)
chain: B1 chain with C16H, A69C, A149C, E367G
B3: D362G arrestin-1 variant (bovine) (other)
chain: B1 chain with C16H, A69C, A149C, D368G
B4: D362A arrestin-1 variant (bovine) (other)
chain: B1 chain with C16H, A69C, A149C, D368A
B5: E361A/D362G arrestin-1 variant (bovine) (other)
chain: B1 chain with C16H, A69C, A149C, E367A, D368G
B6: E361A arrestin-1 variant (bovine) (other)
chain: B1 chain with C16H, A69C, A149C, E367A
B7: E361A/D362A arrestin-1 variant (bovine) (other)
chain: B1 chain with C16H, A69C, A149C, E367A, D368A
B8: E361G/D362A arrestin-1 variant (bovine) (other)
chain: B1 chain with C16H, A69C, A149C, E367G, D368A
B9: E361G/D362G arrestin-1 variant (bovine, His(6)-tagged) (other)
chain: B1 chain with C16H, A69C, A149C, E367G, D368G
B10: V94C arrestin-1 (bovine, His(6), C63A/C143A) labeled with monobromobimane (other)
chain: B1 chain with C16H, V100C
modifications: monobromobimane (mBBr) on Cys 94
notes: Cysteine-substitution mutant, made in Pichia pastoris
B11: S210C arrestin-1 (bovine, His(6), C63A/C143A) labeled with monobromobimane (other)
chain: B1 chain with C16H, S216C
modifications: monobromobimane (mBBr) on Cys 210
notes: as for B10
B12: V281C arrestin-1 (bovine, His(6), C63A/C143A) labeled with monobromobimane (other)
chain: B1 chain with C16H, V287C
modifications: monobromobimane (mBBr) on Cys 281
notes: as for B10
B13: R29E arrestin-1 (bovine, His(6)-tagged charge-reversal mutant) (other)
chain: B1 chain with C16H, R35E, A69C, A149C
B14: E361K arrestin-1 (bovine, His(6)-tagged charge-reversal mutant) (other)
chain: B1 chain with C16H, A69C, A149C, E367K
B15: D362K arrestin-1 (bovine, His(6)-tagged charge-reversal mutant) (other)
chain: B1 chain with C16H, A69C, A149C, D368K

Each molecule was assayed against T1, bovine enolase-1 (bovine, UniProt Q9XSJ4 1-434, AlexaFluor-546 maleimide on reactive cysteines (pulldown assay only; unlabeled in the quench and activity assays)) (assay: titration of enolase-1 (0-12.5 µM) on 0.25 µM H10C-mBBr, KI quench protection).
T1 construct: also called Eno1; alpha-enolase
T1 sequence (Q9XSJ4 whole entry): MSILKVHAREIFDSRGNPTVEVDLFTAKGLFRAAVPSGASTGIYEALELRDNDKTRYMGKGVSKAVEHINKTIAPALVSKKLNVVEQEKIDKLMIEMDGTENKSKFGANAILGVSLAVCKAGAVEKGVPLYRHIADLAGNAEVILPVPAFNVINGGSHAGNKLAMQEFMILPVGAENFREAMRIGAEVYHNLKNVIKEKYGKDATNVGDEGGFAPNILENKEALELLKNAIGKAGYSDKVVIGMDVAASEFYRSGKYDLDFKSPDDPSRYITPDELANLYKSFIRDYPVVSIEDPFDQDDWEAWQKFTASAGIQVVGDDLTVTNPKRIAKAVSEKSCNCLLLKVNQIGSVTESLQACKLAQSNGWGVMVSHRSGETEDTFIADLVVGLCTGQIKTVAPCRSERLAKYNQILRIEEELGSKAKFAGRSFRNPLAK
Description: FIGS. 1A-1B. Graph illustrating optimization of fluorescence quench and quench protection.
B. Enolase concentration. The concentration of enolase-1 that could provide protection of mBBr fluorescence from quenching by the KI was then titrated. […] 90% quench protection was selected as the criterion value, which corresponded to a 20-fold molar excess of enolase-1 to arrestin-1.

Row | Molecule | quench protection at 20-fold molar excess of enolase-1 [%]
1 | B1 | 90

The molecules below were run against T1, bovine enolase-1 (assay: cell-based or functional assay).

Row | Molecule | % inhibition of enolase-1 catalytic activity [%]
2 | B2 | 18.3
3 | B3 | 20.7
4 | B4 | 22.2
5 | B5 | 1.3
6 | B6 | 21.1
7 | B7 | 9
8 | B8 | 8.3
9 | B9 | 0.7

What follows are molecules tested against T1, bovine enolase-1 (assay: KI quench protection of mBBr-labeled arrestin-1; 0.25 µM arrestin-1, 5 µM (20-fold) enolase-1).
Description: C. Quenching assay. Cysteine mutants of arrestin-1 were labeled with monobromobimane (mBBr, ThermoFisher), reacting the arrestin-1 protein with 100-fold molar excess of the fluorescent label for two hours at room temperature. The unreacted label was removed by dialyzing against three sequential changes of 500-volumes of LAP200 buffer. […] Fluorescence quenching of the mBBr fluorophore was performed using 0.25 μM mBBr-labeled arrestin-1 with 100 mM potassium iodide in the presence or absence of 5 μM bovine enolase-1 that had been heterologously expressed and purified as previously described for arrestin-1, monitoring fluorescence emission at 470 nm. To determine the degree to which enolase-1 shielded a residue from quenching by potassium iodide, a protection factor was calculated as follows: […]
C. Mapping interaction of arrestin-1 with enolase-1. […] The fluorescence emission of the mBBr-labeled arrestin-1 with and without potassium iodide was measured to determine the range of quenching by KI. The fluorescence emission quench by KI with and without enolase-1 was then measured. A quench protection factor was calculated as described in the experimental procedures (Table 2). […] When mapped onto the surface of the arrestin-1 structure, these residues largely mapped to a single surface along the “bottom” of the arrestin protein (FIG. 2B).

Row | Molecule | F(A+E+K) (fluorescence with enolase-1 and KI) | Pf (quench protection factor)
10 | B10 | 1900 | 0.062
11 | B1 | 10300 | 0.792
12 | B11 | 8720 | 0.618
13 | B12 | 2440 | 0.269

What follows are molecules tested against SDM-Eno: enolase-1 with all seven corresponding charge-reversal mutations (bovine) (UniProt Q9XSJ4) (assay: anti-arrestin-1 (C10C10) immunoprecipitation pulldown of AlexaFluor546-labeled enolase-1; 5 µM each).
Sequence of SDM-Eno: enolase-1 with all seven corresponding charge-reversal mutations (bovine) (Q9XSJ4 whole entry, change not shown): as the sequence (Q9XSJ4 whole entry) above

Row | Molecule | decrease of pulldown compared to pulldown of wild-type enolase-1 [%]
14 | bovine wild-type arrestin-1, N-terminally His(6)-tagged (from UniProt P08168 2-404) | > 80

The molecules below were run against T1, bovine enolase-1 in the same assay as above.
Description: E. Immunoprecipitation/Enolase Pulldown assay. The interaction between arrestin-1 and enolase-1 was assessed by using anti-arrestin-1 antibody to immunoprecipitate the arrestin-1-enolase-1 complex in which the enolase-1 was fluorescently labeled with AlexaFluor546. For this assay, 1.5 mg of Protein G-coated magnetic beads (DynaBeads, ThermoFisher), were coated with 10 μg of purified C10C10 anti-arrestin-1 monoclonal antibody (Donoso et al. (1990) S-antigen: preparation and characterization of site-specific monoclonal antibodies. Curr Eye Res 9, 343-355). Enolase-1 was labeled on its reactive cysteines with AlexaFluor-546 maleimide (ThermoFisher), reacting the enolase-1 with 100-fold molar excess of the fluorescent label. The fluorescently labeled enolase-1 was then sequentially dialyzed in LAP200^N buffer to remove any unreacted label. For the immunoprecipitation of the arrestin-1-enolase-1 complex, 5 μM arrestin-1 (or arrestin-1 variant) was mixed with 5 μM enolase-1-Alexa546 in LAP200^N in a 200 μL final volume for 2 h at 4° C., to which 10 μg of anti-arrestin-1 antibody on magnetic beads was subsequently added for 16 h with gentle rotation. The beads were magnetically captured, washed ten times with LAP200^N buffer, and then eluted with 0.1 M glycine (pH 2.5). After neutralizing the pH with 0.1 volume 1.5 M Tris base (pH 8.5), the fluorescence of the captured enolase-1-Alexa546 was measured, exciting fluorescence at 530 nm, and measuring average emission at 570-575 nm with a dual-detector fluorimeter (QM-1 steady state fluorescence spectrophotometer, Photon Technologies Inc).
The charge-pair interactions identified in example 1 were selected to further investigate the modeled arrestin-1/enolase-1 interaction. Seven charged-pair interactions (Table 3 and FIG. 4A) were identified from the model as having the closest interactions. […] Following heterologous expression and purification, each arrestin-1 mutant was then assessed for its interaction with enolase-1, using an anti-arrestin-1 immunoprecipitation assay to pulldown fluorescently labelled enolase-1.

Row | Molecule | reduction of enolase-1 pulldown relative to wild-type arrestin-1 [%]
15 | B13 | ~25
16 | B14 | ~25
17 | B15 | ~25
